Paper PMC4234410

Molecular target: Gallus gallus laforin (Gallus gallus) (UniProt Q5ZL46)
Assay: SEC; first pass over a HiLoad 16/60 Superdex 200 column after IMAC and tag removal; buffer C (20 mM Tris/HCl pH 7.5, 100 mM NaCl, 2 mM DTT); multimer peak, dimer and monomer species seen

stoichiometry N: 2
Substance: Gallus gallus laforin (from UniProt Q5ZL46 1-319) (enzyme)
